# B1: PGT-135 monoclonal antibody (clones 5343_B08 and 5344_E16) (antibody, V domains shown)
# VH: QLQMQESGPGLVKPSETLSLSCTVSGDSIRGGEWGDKDYHWGWVRHSAGKGLEWIGSIHWRGTTHYKESLRRRVSMSIDTSRNWFSLRLASVTAADTAVYFCARHRHHDVFMLVPIAGWFDVWGPGVQVTVSS
# VL: EIVMTQSPDTLSVSPGETVTLSCRASQNINKNLAWYQYKPGQSPRLVIFETYSKIAAFPARFVASGSGTEFTLTINNMQSEDVAVYYCQQYEEWPRTFGQGTKVDIK
# How the values were obtained:
# Assay in all cases: cell-based or functional assay
# [1] = biological target: HIV-1 92BR020 envelope glycoprotein (Env), clade B (HIV-1)
# [2] = biological target: HIV-1 92RW020 envelope glycoprotein (Env), clade A (HIV-1)
# [3] = biological target: HIV-1 92TH021 envelope glycoprotein (Env), clade AE (HIV-1)
# [4] = biological target: HIV-1 92UG005 envelope glycoprotein (Env), clade D (HIV-1)
# [5] = biological target: HIV-1 92UG024 envelope glycoprotein (Env), clade D (HIV-1)
# [6] = biological target: HIV-1 93IN905 envelope glycoprotein (Env), clade C (HIV-1)
# [7] = biological target: HIV-1 93UG077 envelope glycoprotein (Env), clade A (HIV-1)
# [8] = biological target: HIV-1 94UG103 envelope glycoprotein (Env), clade A (HIV-1)
# [9] = biological target: HIV-1 APV13 envelope glycoprotein (Env), clade B (HIV-1)
# [10] = biological target: HIV-1 APV17 envelope glycoprotein (Env), clade B (HIV-1)
# [11] = biological target: HIV-1 APV6 envelope glycoprotein (Env), clade B (HIV-1)
# [12] = biological target: HIV-1 CMU02 envelope glycoprotein (Env), clade AE (HIV-1)
# [13] = biological target: HIV-1 JRCSF envelope glycoprotein (Env), clade B (HIV-1) (UniProt P20871)
# [14] = biological target: HIV-1 JRFL envelope glycoprotein (Env), clade B (HIV-1)
# [15] = biological target: HIV-1 MGRM-A-010 envelope glycoprotein (Env), clade A (HIV-1)
# [16] = biological target: HIV-1 MGRM-AG-005 envelope glycoprotein (Env), clade AG (HIV-1)
# [17] = biological target: HIV-1 MGRM-C-026 envelope glycoprotein (Env), clade C (HIV-1)
# [18] = biological target: HIV-1 MGRM-C-027 envelope glycoprotein (Env), clade C (HIV-1)
# [19] = biological target: HIV-1 MGRM-C-028 envelope glycoprotein (Env), clade C (HIV-1)
# [20] = biological target: HIV-1 MGRM-D-001 envelope glycoprotein (Env), clade D (HIV-1)
# [21] = biological target: HIV-1 MGRM-D-018 envelope glycoprotein (Env), clade D (HIV-1)
# [22] = biological target: HIV-1 NL43 envelope glycoprotein (Env), clade B (HIV-1)
# [23] = biological target: aMLV envelope protein (negative control virus)
binder,measurement,setting,value
B1,IC50 (neutralization of pseudovirus),[1],0.104 µg/mL
same,IC80 (neutralization of pseudovirus),[1],0.253 µg/mL
same,IC90 (neutralization of pseudovirus),[1],0.43 µg/mL
same,IC95 (neutralization of pseudovirus),[1],0.72 µg/mL
same,IC50 (neutralization of pseudovirus),[2],0.157 µg/mL
same,IC80 (neutralization of pseudovirus),[2],3.46 µg/mL
same,IC90 (neutralization of pseudovirus),[2],> 10 µg/mL
same,IC95 (neutralization of pseudovirus),[2],> 10 µg/mL
same,IC50 (neutralization of pseudovirus),[3],> 10 µg/mL
same,IC80 (neutralization of pseudovirus),[3],> 10 µg/mL
same,IC90 (neutralization of pseudovirus),[3],> 10 µg/mL
same,IC95 (neutralization of pseudovirus),[3],> 10 µg/mL
same,IC50 (neutralization of pseudovirus),[4],> 10 µg/mL
same,IC80 (neutralization of pseudovirus),[4],> 10 µg/mL
same,IC90 (neutralization of pseudovirus),[4],> 10 µg/mL
same,IC95 (neutralization of pseudovirus),[4],> 10 µg/mL
same,IC50 (neutralization of pseudovirus),[5],0.0139 µg/mL
same,IC80 (neutralization of pseudovirus),[5],0.054 µg/mL
same,IC90 (neutralization of pseudovirus),[5],0.122 µg/mL
same,IC95 (neutralization of pseudovirus),[5],0.267 µg/mL
same,IC50 (neutralization of pseudovirus),[6],0.0183 µg/mL
same,IC80 (neutralization of pseudovirus),[6],0.0648 µg/mL
same,IC90 (neutralization of pseudovirus),[6],0.136 µg/mL
same,IC95 (neutralization of pseudovirus),[6],0.268 µg/mL
same,IC50 (neutralization of pseudovirus),[7],> 10 µg/mL
same,IC80 (neutralization of pseudovirus),[7],> 10 µg/mL
same,IC90 (neutralization of pseudovirus),[7],> 10 µg/mL
same,IC95 (neutralization of pseudovirus),[7],> 10 µg/mL
same,IC50 (neutralization of pseudovirus),[8],> 10 µg/mL
same,IC80 (neutralization of pseudovirus),[8],> 10 µg/mL
same,IC90 (neutralization of pseudovirus),[8],> 10 µg/mL
same,IC95 (neutralization of pseudovirus),[8],> 10 µg/mL
same,IC50 (neutralization of pseudovirus),[9],0.545 µg/mL
same,IC80 (neutralization of pseudovirus),[9],> 10 µg/mL
same,IC90 (neutralization of pseudovirus),[9],> 10 µg/mL
same,IC95 (neutralization of pseudovirus),[9],> 10 µg/mL
same,IC50 (neutralization of pseudovirus),[10],> 10 µg/mL
same,IC80 (neutralization of pseudovirus),[10],> 10 µg/mL
same,IC90 (neutralization of pseudovirus),[10],> 10 µg/mL
same,IC95 (neutralization of pseudovirus),[10],> 10 µg/mL
same,IC50 (neutralization of pseudovirus),[11],> 10 µg/mL
same,IC80 (neutralization of pseudovirus),[11],> 10 µg/mL
same,IC90 (neutralization of pseudovirus),[11],> 10 µg/mL
same,IC95 (neutralization of pseudovirus),[11],> 10 µg/mL
same,IC50 (neutralization of pseudovirus),[12],> 10 µg/mL
same,IC80 (neutralization of pseudovirus),[12],> 10 µg/mL
same,IC90 (neutralization of pseudovirus),[12],> 10 µg/mL
same,IC95 (neutralization of pseudovirus),[12],> 10 µg/mL
same,IC50 (neutralization of pseudovirus),[13],0.113 µg/mL
same,IC80 (neutralization of pseudovirus),[13],0.503 µg/mL
same,IC90 (neutralization of pseudovirus),[13],1.47 µg/mL
same,IC95 (neutralization of pseudovirus),[13],8.3 µg/mL
same,IC50 (neutralization of pseudovirus),[14],> 10 µg/mL
same,IC80 (neutralization of pseudovirus),[14],> 10 µg/mL
same,IC90 (neutralization of pseudovirus),[14],> 10 µg/mL
same,IC95 (neutralization of pseudovirus),[14],> 10 µg/mL
same,IC50 (neutralization of pseudovirus),[15],> 10 µg/mL
same,IC80 (neutralization of pseudovirus),[15],> 10 µg/mL
same,IC90 (neutralization of pseudovirus),[15],> 10 µg/mL
same,IC95 (neutralization of pseudovirus),[15],> 10 µg/mL
same,IC50 (neutralization of pseudovirus),[16],> 10 µg/mL
same,IC80 (neutralization of pseudovirus),[16],> 10 µg/mL
same,IC90 (neutralization of pseudovirus),[16],> 10 µg/mL
same,IC95 (neutralization of pseudovirus),[16],> 10 µg/mL
same,IC50 (neutralization of pseudovirus),[17],0.0123 µg/mL
same,IC80 (neutralization of pseudovirus),[17],0.0562 µg/mL
same,IC90 (neutralization of pseudovirus),[17],0.139 µg/mL
same,IC95 (neutralization of pseudovirus),[17],0.331 µg/mL
same,IC50 (neutralization of pseudovirus),[18],> 10 µg/mL
same,IC80 (neutralization of pseudovirus),[18],> 10 µg/mL
same,IC90 (neutralization of pseudovirus),[18],> 10 µg/mL
same,IC95 (neutralization of pseudovirus),[18],> 10 µg/mL
same,IC50 (neutralization of pseudovirus),[19],2.16 µg/mL
same,IC80 (neutralization of pseudovirus),[19],> 10 µg/mL
same,IC90 (neutralization of pseudovirus),[19],> 10 µg/mL
same,IC95 (neutralization of pseudovirus),[19],> 10 µg/mL
same,IC50 (neutralization of pseudovirus),[20],> 10 µg/mL
same,IC80 (neutralization of pseudovirus),[20],> 10 µg/mL
same,IC90 (neutralization of pseudovirus),[20],> 10 µg/mL
same,IC95 (neutralization of pseudovirus),[20],> 10 µg/mL
same,IC50 (neutralization of pseudovirus),[21],0.0433 µg/mL
same,IC80 (neutralization of pseudovirus),[21],0.2 µg/mL
same,IC90 (neutralization of pseudovirus),[21],> 10 µg/mL
same,IC95 (neutralization of pseudovirus),[21],> 10 µg/mL
same,IC50 (neutralization of pseudovirus),[22],6.79 µg/mL
same,IC80 (neutralization of pseudovirus),[22],> 10 µg/mL
same,IC90 (neutralization of pseudovirus),[22],> 10 µg/mL
same,IC95 (neutralization of pseudovirus),[22],> 10 µg/mL
same,IC50 (neutralization of pseudovirus),[23],> 10 µg/mL
same,IC80 (neutralization of pseudovirus),[23],> 10 µg/mL
same,IC90 (neutralization of pseudovirus),[23],> 10 µg/mL
same,IC95 (neutralization of pseudovirus),[23],> 10 µg/mL
